Laboratory results taken from patent US20250019439A1 (Adimab, published 2025).

Experiments:
ADI-70326 = biological target: T1, ADI-70326; assay: SPR Carterra, yeast anti-ID
T1 construct: anti-CD3 antibody made in CHO cells, captured by anti-human Fc
Description: (§1) Kinetic analysis was conducted at 25° C. in an HBSTE running buffer system (Carterra Cat #3630) using a Carterra LSA (Carterra USA, Salt Lake City, UT). The sample compartment was maintained at 20° C. for the duration of each experiment.
(§2) For antibody capture experiments, a goat anti-human Fc antibody (Jackson ImmunoResearch) was covalently coupled to an HC30M sensor chip surface via standard amine coupling (1:1 EDC:NHS) and then blocked with ethanolamine (1.0 M, pH 8.5). Covalent coupling steps were performed in 25 mM MES buffer (Carterra, Cat #3625) plus 0.05% Tween20. The anti-CD3 antibodies (100 nM in running buffer) were flowed over discrete regions of interest on the chip surface for 5 minutes. […] Dissociation of the anti-idiotype antibodies was monitored for 300s. Several blank buffer samples were injected over the entire chip surface at the start of each non-regenerative kinetic cycle. The preceding blank buffer injection was used for blank surface subtraction. At the end of each non-regenerative kinetic cycle, all surfaces were regenerated via two 30s injections of 10 mM glycine, pH 1.7.
(§3) For data processing and fitting, sensorgrams were double reference subtracted with a baseline drift correction of 4 RU. Sensorgrams were y-aligned and baseline corrected, filtered and cropped to include only the association and dissociation steps. Data was fitted to a 1:1 binding model using Carterra Kinetics Data Analysis software version 1.7.1.3055.

ADI-70327 = biological target: T2, ADI-70327; assay: SPR Carterra, yeast anti-ID
T2 construct: anti-CD3 antibody made in CHO cells, captured by anti-human Fc
T2 sequence (VH, as listed by the source limits assumed, chain 1 of 2): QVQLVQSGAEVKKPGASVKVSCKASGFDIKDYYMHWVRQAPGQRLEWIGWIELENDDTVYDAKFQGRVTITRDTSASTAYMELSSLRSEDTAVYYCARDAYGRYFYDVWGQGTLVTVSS
T2 sequence (VL, as listed by the source limits assumed, chain 2 of 2): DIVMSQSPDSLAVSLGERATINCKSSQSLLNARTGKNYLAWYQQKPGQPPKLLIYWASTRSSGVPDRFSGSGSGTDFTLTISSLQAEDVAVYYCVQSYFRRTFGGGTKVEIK
Description: as §1, §2, §3

ADI-70330 = biological target: T3, ADI-70330; assay: SPR Carterra, yeast anti-ID
T3 construct: anti-CD3 antibody made in CHO cells, captured by anti-human Fc
T3 sequence (VH, as listed by the source limits assumed, chain 1 of 2): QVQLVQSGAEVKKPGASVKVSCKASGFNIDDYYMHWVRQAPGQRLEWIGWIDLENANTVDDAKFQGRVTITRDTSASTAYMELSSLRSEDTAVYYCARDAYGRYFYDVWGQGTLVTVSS
Description: as §1, §2, §3

ADI-67445 = biological target: T4, ADI-67445; assay: SPR Carterra, yeast anti-ID
T4 construct: anti-CD3 antibody made in CHO cells, captured by anti-human Fc
T4 sequence (VH, as listed by the source limits assumed, chain 1 of 2): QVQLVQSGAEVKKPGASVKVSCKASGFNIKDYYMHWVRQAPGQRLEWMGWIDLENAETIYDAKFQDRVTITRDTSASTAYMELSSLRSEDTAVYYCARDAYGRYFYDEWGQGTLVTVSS
T4 sequence (VL, as listed by the source limits assumed, chain 2 of 2): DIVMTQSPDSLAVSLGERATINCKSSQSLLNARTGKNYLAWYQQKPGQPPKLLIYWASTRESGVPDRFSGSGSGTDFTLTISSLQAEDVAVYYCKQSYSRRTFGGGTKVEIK
Description: as §1, §2, §3

ADI-26909 = biological target: T5, ADI-26909; assay: SPR Carterra, yeast anti-ID
T5 construct: anti-CD3 antibody made in CHO cells, captured by anti-human Fc
Description: as §1, §2, §3

ADI-26921 IgG = biological target: T6, ADI-26921 IgG; assay: SPR Carterra, yeast anti-ID
T6 construct: anti-CD3 IgG
T6 sequence (VH, as listed by the source limits assumed, chain 1 of 2): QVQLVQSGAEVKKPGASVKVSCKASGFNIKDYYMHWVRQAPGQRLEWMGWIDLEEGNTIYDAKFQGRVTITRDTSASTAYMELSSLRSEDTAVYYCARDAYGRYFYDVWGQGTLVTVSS
T6 sequence (VL, as listed by the source limits assumed, chain 2 of 2): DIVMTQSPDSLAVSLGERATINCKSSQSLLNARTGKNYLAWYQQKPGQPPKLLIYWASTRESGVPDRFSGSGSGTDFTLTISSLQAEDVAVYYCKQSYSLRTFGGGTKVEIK
Description: as §1, §2, §3

ADI-26915 = biological target: T7, ADI-26915; assay: SPR Carterra, yeast anti-ID
T7 construct: anti-CD3 antibody made in CHO cells, captured by anti-human Fc
T7 sequence (VH, as listed by the source, chain 1 of 2): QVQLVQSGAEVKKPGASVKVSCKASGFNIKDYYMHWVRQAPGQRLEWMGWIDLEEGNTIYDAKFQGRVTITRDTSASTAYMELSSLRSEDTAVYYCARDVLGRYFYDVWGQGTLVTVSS
Description: as §1, §2, §3

ADI-48587 = biological target: T8, ADI-48587; assay: SPR Carterra, yeast anti-ID
T8 construct: pH-dependent anti-CD3 antibody made in CHO cells
Description: as §1, §2, §3

ADI-74967 = biological target: T9, ADI-74967; assay: SPR Carterra, yeast anti-ID
T9 construct: pH-dependent anti-CD3 antibody made in CHO cells
Description: as §1, §2, §3

CTL-62223 = biological target: T10, CTL-62223; assay: SPR Carterra, yeast anti-ID
T10 construct: also called mosunetuzumab
T10 sequence (VH, as listed by the source, chain 1 of 2): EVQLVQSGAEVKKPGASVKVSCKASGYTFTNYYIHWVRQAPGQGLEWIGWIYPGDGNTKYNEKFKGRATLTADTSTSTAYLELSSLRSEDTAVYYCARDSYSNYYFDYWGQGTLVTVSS
T10 sequence (VL, as listed by the source, chain 2 of 2): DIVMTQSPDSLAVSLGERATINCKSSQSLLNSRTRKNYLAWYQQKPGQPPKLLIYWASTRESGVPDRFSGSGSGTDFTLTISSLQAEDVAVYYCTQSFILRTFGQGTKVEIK
Description: as §1, §2, §3

CTL-62227 = biological target: T11, CTL-62227; assay: SPR Carterra, yeast anti-ID
T11 construct: also called odronextamab
Description: as §1, §2, §3

CTL-62228 = biological target: T12, CTL-62228; assay: SPR Carterra, yeast anti-ID
T12 construct: also called glofitamab
Description: as §1, §2, §3

CTL-62240 = biological target: T13, CTL-62240; assay: SPR Carterra, yeast anti-ID
T13 construct: also called ONO-4685
Description: as §1, §2, §3

ADI-50024 = biological target: T14, ADI-50024; assay: SPR Carterra avidity, yeast anti-ID
T14 construct: anti-CD3 antibody made in CHO cells, captured by anti-human Fc
Description: as §1, §2, §3

ADI-67450 = biological target: T15, ADI-67450; assay: SPR Carterra avidity, yeast anti-ID
T15 construct: anti-CD3 antibody made in CHO cells, captured by anti-human Fc
Description: as §1, §2, §3

ADI-67447 = biological target: T16, ADI-67447; assay: SPR Carterra avidity, yeast anti-ID
T16 construct: anti-CD3 antibody made in CHO cells, captured by anti-human Fc
T16 sequence (VH, as listed by the source limits assumed, chain 1 of 2): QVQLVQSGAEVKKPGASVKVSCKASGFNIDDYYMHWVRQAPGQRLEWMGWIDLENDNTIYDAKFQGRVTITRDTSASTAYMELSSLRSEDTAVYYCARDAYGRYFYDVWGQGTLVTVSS
Description: as §1, §2, §3

ADI-26919 = biological target: T17, ADI-26919; assay: SPR Carterra avidity, yeast anti-ID
T17 construct: anti-CD3 antibody made in CHO cells, captured by anti-human Fc
T17 sequence (VH, as listed by the source limits assumed, chain 1 of 2): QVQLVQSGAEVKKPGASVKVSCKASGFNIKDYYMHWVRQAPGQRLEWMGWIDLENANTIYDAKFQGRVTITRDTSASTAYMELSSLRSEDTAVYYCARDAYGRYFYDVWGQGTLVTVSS
Description: as §1, §2, §3

ADI-26916 IgG = biological target: T18, ADI-26916 IgG; assay: SPR Carterra avidity, yeast anti-ID
T18 construct: anti-CD3 IgG
T18 sequence (VH, as listed by the source, chain 1 of 2): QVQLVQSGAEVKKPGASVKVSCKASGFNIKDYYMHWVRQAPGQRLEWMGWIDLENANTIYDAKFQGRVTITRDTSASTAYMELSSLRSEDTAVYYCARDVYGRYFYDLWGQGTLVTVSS
Description: as §1, §2, §3

ADI-26912 = biological target: T19, ADI-26912; assay: SPR Carterra avidity, yeast anti-ID
T19 construct: anti-CD3 antibody made in CHO cells, captured by anti-human Fc
Description: as §1, §2, §3

ADI-26924 = biological target: T20, ADI-26924; assay: SPR Carterra avidity, yeast anti-ID
T20 construct: anti-CD3 antibody made in CHO cells, captured by anti-human Fc
T20 sequence (VH, as listed by the source, chain 1 of 2): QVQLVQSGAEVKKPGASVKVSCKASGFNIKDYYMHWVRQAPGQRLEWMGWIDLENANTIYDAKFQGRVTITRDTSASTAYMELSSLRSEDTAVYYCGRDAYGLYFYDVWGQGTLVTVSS
Description: as §1, §2, §3

ADI-48576 = biological target: T21, ADI-48576; assay: SPR Carterra avidity, yeast anti-ID
T21 construct: pH-dependent anti-CD3 antibody made in CHO cells
T21 sequence (VH, as listed by the source, chain 1 of 2): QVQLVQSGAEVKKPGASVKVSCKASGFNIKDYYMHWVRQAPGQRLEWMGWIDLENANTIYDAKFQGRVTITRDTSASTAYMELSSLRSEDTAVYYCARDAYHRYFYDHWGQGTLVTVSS
T21 sequence (VL, as listed by the source, chain 2 of 2): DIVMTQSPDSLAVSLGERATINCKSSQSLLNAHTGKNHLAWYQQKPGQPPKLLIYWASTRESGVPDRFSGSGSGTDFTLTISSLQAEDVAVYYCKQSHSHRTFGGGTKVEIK
Description: as §1, §2, §3

ADI-48592 = biological target: T22, ADI-48592; assay: SPR Carterra avidity, yeast anti-ID
T22 construct: pH-dependent anti-CD3 antibody made in CHO cells
Description: as §1, §2, §3

ADI-48650 = biological target: T23, ADI-48650; assay: SPR Carterra avidity, yeast anti-ID
T23 construct: pH-dependent anti-CD3 antibody made in CHO cells
T23 sequence (VH, as listed by the source, chain 1 of 2): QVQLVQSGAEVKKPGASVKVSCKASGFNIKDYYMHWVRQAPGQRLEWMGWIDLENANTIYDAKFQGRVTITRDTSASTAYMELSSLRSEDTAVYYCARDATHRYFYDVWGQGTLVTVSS
T23 sequence (VL, as listed by the source, chain 2 of 2): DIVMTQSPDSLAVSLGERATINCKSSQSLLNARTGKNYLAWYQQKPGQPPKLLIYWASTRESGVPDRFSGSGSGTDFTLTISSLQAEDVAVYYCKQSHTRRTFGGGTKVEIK
Description: as §1, §2, §3

ADI-74965 = biological target: T24, ADI-74965; assay: SPR Carterra avidity, yeast anti-ID
T24 construct: pH-dependent anti-CD3 antibody made in CHO cells
Description: as §1, §2, §3

ADI-74966 = biological target: T25, ADI-74966; assay: SPR Carterra avidity, yeast anti-ID
T25 construct: pH-dependent anti-CD3 antibody made in CHO cells
Description: as §1, §2, §3

ADI-74968 = biological target: T26, ADI-74968; assay: SPR Carterra avidity, yeast anti-ID
T26 construct: pH-dependent anti-CD3 antibody made in CHO cells
Description: as §1, §2, §3

ADI-76358 = biological target: T27, ADI-76358; assay: SPR Carterra avidity, yeast anti-ID
T27 construct: anti-CD3 antibody made in CHO cells, captured by anti-human Fc
T27 sequence (VH, as listed by the source, chain 1 of 2): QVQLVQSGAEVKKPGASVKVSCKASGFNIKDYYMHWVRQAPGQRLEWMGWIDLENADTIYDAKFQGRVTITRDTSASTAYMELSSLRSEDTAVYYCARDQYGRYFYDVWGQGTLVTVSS
Description: as §1, §2, §3

ADI-76359 = biological target: T28, ADI-76359; assay: SPR Carterra avidity, yeast anti-ID
T28 construct: anti-CD3 antibody made in CHO cells, captured by anti-human Fc
Description: as §1, §2, §3

ADI-76360 = biological target: T29, ADI-76360; assay: SPR Carterra avidity, yeast anti-ID
T29 construct: anti-CD3 antibody made in CHO cells, captured by anti-human Fc
T29 sequence (VH, as listed by the source, chain 1 of 2): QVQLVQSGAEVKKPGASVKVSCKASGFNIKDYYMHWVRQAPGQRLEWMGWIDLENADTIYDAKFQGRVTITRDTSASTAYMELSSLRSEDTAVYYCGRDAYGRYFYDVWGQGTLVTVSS
Description: as §1, §2, §3

ADI-76361 = biological target: T30, ADI-76361; assay: SPR Carterra avidity, yeast anti-ID
T30 construct: anti-CD3 antibody made in CHO cells, captured by anti-human Fc
T30 sequence (VH, as listed by the source, chain 1 of 2): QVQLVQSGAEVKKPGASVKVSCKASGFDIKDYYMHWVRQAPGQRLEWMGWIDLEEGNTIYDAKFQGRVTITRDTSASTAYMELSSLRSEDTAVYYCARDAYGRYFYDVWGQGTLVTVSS
Description: as §1, §2, §3

ADI-76362 = biological target: T31, ADI-76362; assay: SPR Carterra avidity, yeast anti-ID
T31 construct: anti-CD3 antibody made in CHO cells, captured by anti-human Fc
T31 sequence (VH, as listed by the source, chain 1 of 2): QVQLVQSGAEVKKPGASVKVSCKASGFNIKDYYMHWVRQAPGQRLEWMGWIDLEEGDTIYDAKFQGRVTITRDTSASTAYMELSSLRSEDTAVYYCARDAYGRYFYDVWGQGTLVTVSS
Description: as §1, §2, §3

ADI-22523 Fab = biological target: T32, ADI-22523 Fab; assay: BLI; tip anti-ID IgG, solution ADI-22523 Fab
T32 construct: anti-CD3 Fab by papain digestion of the IgG
Description: (§4) ForteBio affinity measurements were performed generally as previously described (Estep et al., MAbs. 2013 5(2):270-8). Briefly, ForteBio affinity measurements were performed by loading antibody IgG or Fabs on-line onto AHC sensors. Sensors were equilibrated off-line in assay buffer for 30 minutes and then monitored on-line for 60 seconds for baseline establishment. For avid binding measurement, sensors with loaded antibodies were exposed to IgG or Fab solutions for 3 minutes, afterwards they were transferred to assay buffer for 3 minutes for off-rate measurement. Kinetics data were fit using a 1:1 binding model in the data analysis software provided by ForteBio to obtain equilibrium dissociation constant (KD=koff/kₒₙ) values. In each column, tip-immobilized antibodies are listed first and solution antibodies second.

ADI-22523 IgG = biological target: T33, ADI-22523 IgG; assay: BLI; tip anti-ID IgG, solution ADI-22523 IgG
T33 construct: anti-CD3 IgG
Description: as §4

ADI-26906 IgG = biological target: T34, ADI-26906 IgG; assay: SPR Carterra avidity, yeast anti-ID, *koff limit
T34 construct: anti-CD3 IgG
Description: as §1, §2, §3

ADI-26913 IgG = biological target: T35, ADI-26913 IgG; assay: SPR Carterra avidity, yeast anti-ID, *koff limit
T35 construct: anti-CD3 IgG
Description: as §1, §2, §3

ADI-26920 IgG = biological target: T36, ADI-26920 IgG; assay: SPR Carterra avidity, yeast anti-ID, *koff limit
T36 construct: anti-CD3 IgG
Description: as §1, §2, §3

ADI-26943 = biological target: T37, ADI-26943; assay: SPR Carterra avidity, yeast anti-ID, *koff limit
T37 construct: anti-CD3 antibody made in CHO cells, captured by anti-human Fc
T37 sequence (VH, as listed by the source, chain 1 of 2): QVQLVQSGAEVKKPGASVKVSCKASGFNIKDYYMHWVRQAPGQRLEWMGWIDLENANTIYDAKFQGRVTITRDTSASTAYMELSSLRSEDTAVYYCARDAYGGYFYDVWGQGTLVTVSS
T37 sequence (VL, as listed by the source, chain 2 of 2): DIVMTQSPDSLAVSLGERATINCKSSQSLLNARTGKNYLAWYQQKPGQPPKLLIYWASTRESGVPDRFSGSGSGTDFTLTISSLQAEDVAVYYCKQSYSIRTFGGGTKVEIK
Description: as §1, §2, §3

ADI-76357 = biological target: T38, ADI-76357; assay: SPR Carterra avidity, yeast anti-ID, *koff limit
T38 construct: anti-CD3 antibody made in CHO cells, captured by anti-human Fc
Description: as §1, §2, §3

B1: ADI-34144 (antibody, V domains shown)
VH: EVQLLESGGGLVQPGGSLRLSCAASGFTFSSYAMSWVRQAPGKGLEWVSTISGSGGSTYYADSVKGRFTISRDNSKNTLYLQMNSLRAEDTAVYYCARLGGRRGSGSSYYYYYGMDVWGQGTTVTVSS
VL: not shown
notes: anti-ID IgG
B1: no binding (tested: up to 200 nM) (ADI-70326); no binding (tested: up to 200 nM) (ADI-70327); no binding (tested: up to 200 nM) (ADI-70330). B1: no binding (tested: up to 200 nM) (ADI-67445); no binding (tested: up to 200 nM) (ADI-26909); no binding (tested: up to 200 nM) (ADI-26921 IgG). B1: no binding (tested: up to 200 nM) (ADI-26915); no binding (tested: up to 200 nM) (ADI-48587); no binding (tested: up to 200 nM) (ADI-74967). B1: no binding (tested: up to 200 nM) (CTL-62223); no binding (tested: up to 200 nM) (CTL-62227); no binding (tested: up to 200 nM) (CTL-62228). B1: no binding (tested: up to 200 nM) (CTL-62240); binds (ADI-50024); binds (ADI-67450). For the same binder, the Kd (ADI-67447) was 22 nM, the Kd (ADI-26919) was 32 nM and the Kd (ADI-26916 IgG) was 16 nM. For the same binder, the binding result (ADI-26912) was “binds”, the Kd (ADI-26924) was 4.9 nM and the binding result (ADI-48576) was “binds”. B1: binds (ADI-48592); binds (ADI-48650); binds (ADI-74965). For the same binder, the Kd (ADI-74966) was 59 nM, the Kd (ADI-74968) was 72 nM and the binding result (ADI-76358) was “binds”. The Kd (ADI-76359) was 17 nM, the binding result (ADI-76360) was “binds” and the binding result (ADI-76361) was “binds”. The binding result (ADI-76362) was “binds”, the Kd (ADI-22523 Fab) was 6.17 nM and the Kd (ADI-22523 IgG) was 2.6 nM. The Kd (ADI-26906 IgG) was 12 nM, the Kd (ADI-26913 IgG) was 8.6 nM and the Kd (ADI-26920 IgG) was 7.5 nM. The Kd (ADI-26943) was 5.1 nM and the Kd (ADI-76357) was 6.3 nM.
